PMC3096012
Blank lines part the entries; values can stand above or below the binder they belong to.

What was measured:
Experiment in all cases: SEC
[1] = target: GltPh-A V355C-S279C, unlabeled (Pyrococcus Horikoshi), O59010
[2] = target: GltPh-A A353C-L130C, unlabeled (Pyrococcus Horikoshi), O59010
[3] = target: GltPh-A V355C-P129C, unlabeled (Pyrococcus Horikoshi), O59010

stoichiometry N [1]: 3
B1: GltPh-A V355C-S279C, unlabeled, O59010 1-425 (natural protein)
chain: MGLYRKYIEYPVLQKILIGLILGAIVGLILGHYGYAHAVHTYVKPFGDLFVRLLKMLVMPIVFASLVVGAASISPARLGRVGVKIVVYYLLTSAFAVTLGIIMARLFNPGAGIHLAVGGQQFQPHQAPPLVHILLDIVPTNPFGALANGQVLPTIFFAIILGIAITYLMNSENEKVRKSAETLLDAINGLAEAMYKIVNGVMQYAPIGVFALIAYVMAEQGVHVVGELAKVTAAVYVGLTLQILLVYFVLLKIYGIDPISFIKHAKDAMLTAFVTRSSCGTLPVTMRVAKEMGISEGIYSFTLPLGATINMDGTALYQGVATFFIANALGSHLTVGQQLTIVLTAVLASIGTAGCPGAGAIMLAMVLHSVGLPLTDPNVAAAYAMILGIDAILDMGRTMVNVTGDLTGTAIVAKTEGTLVPR
modifications: not checked

stoichiometry N [2]: 3
B2: GltPh-A A353C-L130C, unlabeled, O59010 1-425 (natural protein)
chain: MGLYRKYIEYPVLQKILIGLILGAIVGLILGHYGYAHAVHTYVKPFGDLFVRLLKMLVMPIVFASLVVGAASISPARLGRVGVKIVVYYLLTSAFAVTLGIIMARLFNPGAGIHLAVGGQQFQPHQAPPCVHILLDIVPTNPFGALANGQVLPTIFFAIILGIAITYLMNSENEKVRKSAETLLDAINGLAEAMYKIVNGVMQYAPIGVFALIAYVMAEQGVHVVGELAKVTAAVYVGLTLQILLVYFVLLKIYGIDPISFIKHAKDAMLTAFVTRSSSGTLPVTMRVAKEMGISEGIYSFTLPLGATINMDGTALYQGVATFFIANALGSHLTVGQQLTIVLTAVLASIGTCGVPGAGAIMLAMVLHSVGLPLTDPNVAAAYAMILGIDAILDMGRTMVNVTGDLTGTAIVAKTEGTLVPR
modifications: not checked

stoichiometry N [3]: 3
B3: GltPh-A V355C-P129C, unlabeled, O59010 1-425 (natural protein)
chain: MGLYRKYIEYPVLQKILIGLILGAIVGLILGHYGYAHAVHTYVKPFGDLFVRLLKMLVMPIVFASLVVGAASISPARLGRVGVKIVVYYLLTSAFAVTLGIIMARLFNPGAGIHLAVGGQQFQPHQAPCLVHILLDIVPTNPFGALANGQVLPTIFFAIILGIAITYLMNSENEKVRKSAETLLDAINGLAEAMYKIVNGVMQYAPIGVFALIAYVMAEQGVHVVGELAKVTAAVYVGLTLQILLVYFVLLKIYGIDPISFIKHAKDAMLTAFVTRSSSGTLPVTMRVAKEMGISEGIYSFTLPLGATINMDGTALYQGVATFFIANALGSHLTVGQQLTIVLTAVLASIGTAGCPGAGAIMLAMVLHSVGLPLTDPNVAAAYAMILGIDAILDMGRTMVNVTGDLTGTAIVAKTEGTLVPR
modifications: not checked
